According to patent US20090227489A1, “STAT3 Agonists and Antagonists and Therapeutic Uses Thereof” (Johns Hopkins University, priority 2000, published 2009):

What was measured:
[1] = tested on: B16 cells; test: Cell growth inhibition assay, live cells by trypan blue exclusion; type: cell-based, murine; settings: 48 h later, vs pIRES-EGFP
Method: Cell growth inhibition assay. Cells were plated at 1.7×10^5 cells/well in 6-well plates, followed by transfection with either pIRES-EGFP or pIRES-Stat3β plasmids 24 h later. Cells were harvested at 24 h, 48 h or 72 h to determine the numbers of live cells. Cell viability was determined by trypan blue exclusion.
(§1) This G0/G1 phase arrest was observed as early as 24 hourspost transfection. At 48 hours post transfection with Stat3β vector, Annexin V-PE staining followed by FACS analysis to detect apoptotic activity was performed with transfected B16 cells. A high level of apoptosis in Stat3β transfected cells (75%) relative to empty vector transfected cells (25%) was observed, as shown in FIG. 2C. Increased levels of apoptosis as a result of Stat3β transfection was confirmed by confocal laser scanning microscope analysis using rhodamine-labelled TUNEL assay.

[2] = biological target: T1, Stat3 (Mus musculus, UniProt P42227); test: EMSA of Stat3 DNA-binding activity in nuclear extracts of transfected B16 cells; type: cell-based, murine; settings: B16 cells transfected with Stat3β, hSIE probe
T1 construct: endogenous in cells; host or cells: B16 murine melanoma cells (nuclear extracts)
T1 sequence (P42227 whole entry): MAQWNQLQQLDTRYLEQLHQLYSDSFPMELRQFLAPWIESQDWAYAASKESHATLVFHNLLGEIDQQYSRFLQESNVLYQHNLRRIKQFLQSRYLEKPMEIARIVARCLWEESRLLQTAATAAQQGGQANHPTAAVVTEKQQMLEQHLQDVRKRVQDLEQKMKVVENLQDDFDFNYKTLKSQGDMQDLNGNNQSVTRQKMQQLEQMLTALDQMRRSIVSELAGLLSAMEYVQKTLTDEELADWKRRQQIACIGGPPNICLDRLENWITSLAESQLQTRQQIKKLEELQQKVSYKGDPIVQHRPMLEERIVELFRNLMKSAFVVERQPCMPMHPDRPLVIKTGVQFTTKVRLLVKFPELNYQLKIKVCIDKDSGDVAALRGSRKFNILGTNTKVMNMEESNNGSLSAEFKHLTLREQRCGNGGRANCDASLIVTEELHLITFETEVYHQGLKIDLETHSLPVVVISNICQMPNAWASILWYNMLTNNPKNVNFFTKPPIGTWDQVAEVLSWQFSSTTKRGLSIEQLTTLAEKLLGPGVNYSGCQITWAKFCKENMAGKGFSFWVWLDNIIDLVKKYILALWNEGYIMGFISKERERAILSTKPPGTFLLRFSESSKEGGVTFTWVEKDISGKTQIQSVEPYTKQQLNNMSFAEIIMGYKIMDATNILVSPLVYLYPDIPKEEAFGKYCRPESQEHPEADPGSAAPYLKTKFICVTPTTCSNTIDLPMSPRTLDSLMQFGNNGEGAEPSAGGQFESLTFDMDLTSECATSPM
Method: FIG. 1. Inhibition of endogenous Stat3 (SEQ. ID. NO: 1; SEQ. ID. NO:2) DNA-binding activity in B16 cells by overexpression of Stat3β (SEQ. ID. NO:3; SEQ. ID. NO:4). EMSA was performed with nuclear extracts prepared from B16 cells transfected with no DNA (lane 1), empty vector (lane 2) or Stat3β expression vector (lane 3). Extracts from NIH3T3 fibroblasts stimulated with EGF were used as a positive control for Stat1 and Stat3 (lane 4). Supershifts were performed using antibodies recognizing either Stat3 (α-ST3) or Stat3:3 (α-ST3β) with extracts derived from B16 cells transfected with no DNA (lanes 5-7), the empty vector (lanes 8-10), or Stat3β vector (lanes 11-13). ST3:3, and ST1:3, ST1:1 indicate migration of complexes containing Stat3 or Stat3β homodimers, Stat1/Stat3 heterodimers and Stat1/Stat1 homodimers, respectively. The asterisk indicates the position of supershifted complexes.
Nuclear extracts and EMSA. Nuclear extract preparation and EMSA analysis of STAT DNA-binding activity were performed as previously described Catlett-Falcone et al., 1999, supra.
EGF-induced Stat3 binding activity in NIH3T3 (lane 4) was used as a positive control. By supershift analysis with antibody that recognizes Stat3 but not Stat3β or antibody that recognizes Stat3β but not Stat3, it was shown that there were Stat3-Stat3 homodimers in mock-transfected B16 cells and empty vector-transfected B16 cells.

[3] = tested on: U266 cells; settings: cited from earlier work
[4] = tested on: B16 cells; test: Cell cycle analysis by propidium iodide staining and FACS; type: cell-based, murine; settings: transfected B16 cells, from 24 hours post transfection
Method: Cell cycle analysis. Cell cycle analysis based on DNA content was performed. Cells were harvested, washed twice in PBS and resuspended in 70% ethanol on ice for at least 30 min. After centrifugation, cells were resuspended in 1 ml of propidium iodide staining solution (50 μg propidium iodide, 1 mg RNase A and 1 mg glucose per ml PBS) and incubated at room temperature for 30 min. The cells were analyzed by FACS using ModFit LT cell cycle analysis software (Verity Software, Topsham, Me.). Cells transfected with vectors encoding EGFP were fixed in 1 ml of 0.5% formaldehyde on ice for 10 min. before adding 70% ethanol.
as §1

[5] = tested on: peritoneal macrophages and lymphocytes; test: Mice injected with transfected B16 cells: macrophage NO production and lymphocyte IFN-γ ELISPOT; type: in vivo; settings: transfected B16 cells injected into mice
Method: FIG. 9A-B. Expression of Stat3β in tumor cells leads to activation of macrophages and T lymphocytes in vivo. Mice were injected with B16 cells (2×10^6/mouse) transfected with either GFP or Stat3β expression vectors. Five days later, peritoneal macrophages and lymphocytes were tested for NO production and IFN-γ production, respectively. A. NO production by peritoneal macrophages. B. IFN-γ ELISPOT of lymphocytes.
In addition to direct tumoricidal effect shown herein with production of NO by macrophages, innate immunity critically impacts the development of adaptive immune responses. […] Furthermore, a four-fold increase in IFN-γ production by lymphocytes derived from mice injected with Stat3β-transfected B16 cells was also detected (FIG. 9B).

[6] = tested on: VEGF promoter; test: VEGF promoter luciferase reporter in B16 and SCK tumor cells; type: cell-based; settings: B16 and SCK murine tumor cells, co-transfection
Description: FIG. 12A-B. Blocking Stat3 signaling in tumor cells inhibits VEGF promoter activity. Both B16 (A) and SCK (B) murine tumor cells were transfected with constructs containing the luciferase cDNA in the absence (pluc) or presence of the VEGF promoter (VEGF).
A plasmid construct containing the luciferase cDNA in the absence of the VEGF promoter was also transfected into 3T3 fibroblasts. Both of B16 and SCK tumor cells harbor constitutively activated Stat3. In the absence of Stat3β, VEGF promoter activity was readily detectable in both tumor cells as indicated by the high expression levels of luciferase protein. […] The inhibitory effect of Stat3β on the transcriptional activity of the VEGF promoter was also observed in the tumor cells transfected with Stat3 anti-sense oligonucleotides (FIG. 12A-B). It was also shown that blocking Stat3 signaling in tumor cells inhibits the expression of the endogeneous VEGF gene. B16 tumor cells were transiently transfected with Stat3β and the expression of endogeneous VEGF gene was determined at the RNA and protein levels.

- Stat3 DNA-binding complexes (supershift analysis) [2]: mostly Stat3β-Stat3β homodimer formation
B1: Stat3β: dominant-negative Stat3 variant, truncated form lacking the transactivation domain; delivered by the pIRES-Stat3β expression vector (protein)
chain: AQWNQLQQLDTRYLEQLHQLYSDSFPMELRQFLAPWIESQDWAYAASKESHATLVFHNLLGEIDQQYSRFLQESNVLYQHNLRRIKQFLQSRYLEKPMEIARIVARCLWEESRLLQTAATAAQQGGQANHPTAAVVTEKQQMLEQHLQDVRKRVQDLEQKMKVVENLQDDFDFNYKTLKSQGDMQDLNGNNQSVTRQKMQQLEQMLTALDQMRRSIVSELAGLLSAMEYVQKTLTDEELADWKRRQQIACIGGPPNICLDRLENWITSLAESQLQTRQQIKKLEELQQKVSYKGDPIVQHRPMLEERIVELFRNLMKSAFVVERQPCMPMHPDRPLVIKTGVQFTTKVRLLVKFPELNYQLKIKVCIDKDSGDVAALRGSRKFNILGTNTKVMNMEESNNGSLSAEFKHLTLREQRCGNGGRANCDASLIVTEELHLITFETEVYHQGLKIDLETHSLPVVVISNICQMPNAWASILWYNMLTNNPKNVNFFTKPPIGTWDQVAEVLSWQFSSTTKRGLSIEQLTTLAEKLLGPGVNYSGCQITWAKFCKENMAGKGFSFWVWLDNIIDLVKKYILALWNEGYIMGFISKERERAILSTKPPGTFLLRFSESSKEGGVTFTWVEKDISGKTQIQSVEPYTKQQLNNMSFAEIIMGYKIMDATNILVSPLVYLYPDIPKEEAFGKYCRPESQEHPEADPGAAPYLKTKFICVTFIDAVWK
- number of live B16 cells [1]: decreases dramatically
- expression of the Bcl-XL gene [3]: down-regulated expression of the Stat3-regulated Bcl-XL gene
- sensitization to Fas-mediated apoptosis ([3]; in vitro): dramatic sensitization of cells to Fas-mediated apoptosis
- cell cycle distribution [4]: progressive accumulation in G0/G1 phase
- increase in IFN-γ production by lymphocytes ([5]; ELISPOT): four-fold
- NO production by peritoneal macrophages ([5]; five days later): clear induction of NO production
- transcriptional activity of the VEGF promoter (luciferase) [6]: greatly inhibited
